B1: NIV-8 Fab (Fab, V domains shown)
VH: EVQLVESGGGVVQPGRSLRLSCAASGFKFSKFAMHWVRQAPGKGPEWVAVISYDGNQYHSADSVKGRFTISRDNSFNTLYLQMNSLGPEDTAVYYCARDGPDTSGYYANIYFDFWGQGTLVTVSS
VL: QSVLTQPPSVSGAPGQRVTISCTGSSSNIGAGYDVHWYQQLPGRAPKLLIFDNNNRPSGVPDRFSGSKSGTSASLAITGLQTEDEAYYYCQSYDNSLILAVFGGGTKVTVL
B2: NIV-10 Fab (Fab, V domains shown)
VH: EVQLVESGGGLVQPGGSLRLSCAASGFTFYSYWMTWVRQAPGKGLEWVANIKHDESESHYVDSVRGRFTISRDNAKNSVYLQMKGLRAEDTAVYYCARDGGYNILTAYYHAPSYWGQGTLVTVSS
VL: QSALTQPASVSGSPGQSITISCTGTSSDVGGYNFVSWYRQYPGKAPQLMIYDVSRRPSGDSDRFSGSKSGNTASLTISGLQAEDEAEYHCSSYTGRSPYVVFGGGTKVTVL
B3: NIV-11 Fab (Fab, V domains shown)
VH: QLVQSGPEVKKPGTSVKVSCKASGFTFYYSAVQWVRQARGQRLEWLGWMAVGSGKANYAQKFQERLTLTRDMSTSTAYMELSSLRSEDTAVYYCAAPNCTGGSCYDGFNLWGQGTVVTVSS
VL: EIVLTQSPGTLSLSPGDRAILSCRASQTVNSNYLAWYQQKPGQAPRLLIYGTSSRATGIPDRFSGSGSGTDFTLTISRLEPEDFAVYYCQQYGSSPWLFGQGTKVEIK
B4: NIV-13 Fab (Fab, V domains shown)
VH: EVQLLESGGGLVQPGGSLRLSCAASGFTFSRYALSWVRQAPGKGLEWVSAISGAAITTYYADSVKGRFTISRDDSRNTLFMQMDSLRAEDTAVYYCAKGDYYDSSGYLAEYFPHWGQGTLVTVSS
VL: SYELTQPPSVSVSPGQTARITCFADALPKQHAYWYQQKAGQAPVLVIFKDTERPSGIPKRFSGSRSGATVTLTISGVQAEDEADYYCQSTDISGVLFGGGTKLTVL

Biological target: SARS-CoV-2 spike receptor-binding domain, ancestral (amino acids 331-529), biotinylated (SARS-CoV-2, ancestral (Wuhan), UniProt P0DTC2, biotin (RBD expression vector co-expressed with BirA-Flag, 100 μM biotin added))
Test: BLI
Conditions: both partners purified

| Binder | Kd | koff | kon |
| --- | --- | --- | --- |
| B1 | 10.9 pM | 1.15e-06 s⁻¹ | 106000 M⁻¹ s⁻¹ |
| B2 | 5.42 pM | 1.24e-06 s⁻¹ | 223000 M⁻¹ s⁻¹ |
| B3 | 20.8 pM | 1.12e-06 s⁻¹ | 53600 M⁻¹ s⁻¹ |
| B4 | 7.33 pM | 1.19e-06 s⁻¹ | 163000 M⁻¹ s⁻¹ |
